Measured values: paper PMC10228544 (Science immunology, 2023)
Substitutions are numbered along the chain they refer to. Names and notes keep the numbering of the source.

B1: FMC63^Y261A CAR on CAR T cells (receptor)
VH: EVKLQESGPGLVAPSQSLSVTCTVSGVSLPDYGVSWIRQPPRKGLEWLGVIWGSETTYYNSALKSRLTIIKDNSKSQVFLKMNSLQTDDTAIYYCAKHYYAGGSYAMDYWGQGTSVTVSS
VL: DIQMTQTTSSLSASLGDRVTISCRASQDISKYLNWYQQKPDGTVKLLIYHTSRLHSGVPSRFSGSGSGTDYSLTISNLEQEDIATYFCQQGNTLPYTFGGGTKLEIT
B2: SJ25C1^WT CAR (SJ25C1 scFv, CD28, CD3-zeta) on CAR T cells (receptor)
VH: EVKLQQSGAELVRPGSSVKISCKASGYAFSSYWMNWVKQRPGQGLEWIGQIYPGDGDTNYNGKFKGQATLTADKSSSTAYMQLSGLTSEDSAVYFCARKTISSVVDFYFDYWGQGTTVTVSS
VL: DIELTQSPKFMSTSVGDRVSVTCKASQNVGTNVAWYQQKPGQSPKPLIYSATYRNSGVPDRFTGSGSGTDFTLTITNVQSKDLADYFCQQYNRYPYTSGGGTKLEIK
B3: SJ25C1^W52F CAR on CAR T cells (receptor)
VH: B2 VH with W33F
VL: B2 VL
B4: SJ25C1^I120V CAR on CAR T cells (receptor)
VH: B2 VH with I101V
VL: B2 VL

Molecular target: Alexa-Fluor-488-conjugated recombinant hCD19-hFc (Homo sapiens, UniProt P15391, Alexa Fluor 488 conjugate)
Assay: flow cytometry on cells

Sequence of Alexa-Fluor-488-conjugated recombinant hCD19-hFc (P15391 20-291): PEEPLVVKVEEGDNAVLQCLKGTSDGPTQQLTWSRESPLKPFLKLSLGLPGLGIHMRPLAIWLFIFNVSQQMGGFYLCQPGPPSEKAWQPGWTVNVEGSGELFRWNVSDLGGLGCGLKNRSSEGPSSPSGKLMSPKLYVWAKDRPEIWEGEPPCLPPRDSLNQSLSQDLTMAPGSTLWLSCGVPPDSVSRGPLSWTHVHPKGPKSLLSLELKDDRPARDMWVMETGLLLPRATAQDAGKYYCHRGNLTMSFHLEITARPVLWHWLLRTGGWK

Binding result, binds:
B1
B2
B3
B4
